In data set [1] the test system is CC(=O)N[C@H]1[C@H](Oc2ccc([N+](=O)[O-])cc2)O[C@H](CO)[C@@H](O)[C@@H]1O. The data set can be described thus: purified protein. The settings on record: 0.1 M phosphate pH 7.0, 37°C, 0-500 μM substrate, enzyme unstable.
Substrate in data set [2]: CC(=O)N[C@H]1[C@H](Oc2ccc([N+](=O)[O-])cc2)O[C@H](CO)[C@@H](O)[C@@H]1O
In words: initial rates, reducing sugar (DNS) assay, nonlinear regression. The class given is biochemical, Vibrio harveyi. The settings on record: 0.1 M phosphate pH 7.0, 37°C, 0-500 μM substrate. The text has this:
initial rates, reducing sugar (DNS) assay, nonlinear regression on VhNag2

Usually Km stands for the substrate concentration at which the rate is half of its maximum. The kcat is the number of substrate molecules converted per active site and unit of time at saturation. For orientation: kcat/Km means the turnover number divided by the Michaelis constant. On to VhNag1 (Vibrio harveyi), for which, in data set [1], the Michaelis constant (Km) is 172 ± 48 µM, the kcat was 0.08 s⁻¹ and the kcat/Km was determined as 465 M⁻¹ s⁻¹.

B1: VhNag2 (Vibrio harveyi) (protein)
chain: EYRVDLVVLSEQKQNCRFGLTFHNLSDQDLNSWGLTFAFDRYILPDSVSNGQLTQIGSFCTLKPEGIVLAANHHYYCEFSIGSNPFRYYSDGFNEAMIDFVVDGQPQRAQVDVTPIVLASPYRERSDIPASLTHAQPLLPKPNHIEVSDHSFTFDEQAGVAIYTDLANSAKAWLLEELQRIHQFTLSSSNSGKIIFKSNPTLDEGAYKLKVSEESIKIEAGSSSGFTHACATLLQLLKRDEATKTMEAVCCSIIDSPRFRYRGMMLDCARHFHSVEQVKRLINLLAHYKLNTFHWHLTDDEGWRVEIKSLPQLTEIGAWRGIDETIEPQYTHLSQRYGGFYTQEEIRDVIAFAEQRGITIIPEIDVPGHCRAAIKSLPHLLIEAEDTTEYRSIQHYNDNVINPALPGSYEFIDKVLEEIAALFPAPYVHIGADEVPNGVWSKSPACQALMEQLGYTDYKELQGHFLRHAEDKLRKLGKRMLGWEEAQHGNKVSKDTVIYSWLSEEAALNCARQGFDVVLQPAQTTYLDMTQDYAPEEPGVDWANPLPLEKAYNYEPLAEVPADDPIRKRIWGIQTALWCEIINNPSRMDYMIFPRLTAMAEACWTEKQHRDWTDYLSRLKGHLPLLDLQGVNYRKPWK
notes: full-length, 1,926 bp, 73,143 Da, C-terminal His6 (pQE60), E. coli M15, Ni-NTA; no signal peptide predicted
For the molecule B1, in data set [2], the Km turned out to be 77 ± 17 µM, the turnover number (kcat) is 0.38 s⁻¹ and the kcat/Km was determined as 4940 M⁻¹ s⁻¹.

(Values after paper PMC2955587, “Novel β-N-acetylglucosaminidases from Vibrio harveyi 650: Cloning, expression, enzymatic properties, and subsite identification” (BMC Biochemistry, 2010).)
